Measured values: US20020137113A1

Key:
[1] = target: trkC.IgG (untagged trk.IgG fusion of the trkC extracellular domain and IgG-1 Fc) (human) (UniProt Q16288); assay: competitive displacement of iodinated NT3 from trkC.IgG in 293 cell supernatant
[2] = target: gD.trkC.IgG (gD tagged trkC.IgG fusion protein) (Herpes simplex virus; human) (UniProt Q16288); assay: competitive displacement of iodinated NT3 from gD tagged trkC.IgG in 293 cell supernatant
[3] = target: gD.trkB.IgG (gD tagged trkB.IgG fusion protein) (Herpes simplex virus; human) (UniProt Q16620); assay: competitive displacement of iodinated NT5 from gD tagged trkB.IgG in 293 cell supernatant

| IC50 [1] [nM] | IC50 [2] [nM] | IC50 [3] [nM] | Binder |
| --- | --- | --- | --- |
| 0.0311 | 0.0302 |  | neurotrophin 3 (NT3) (ligand, UniProt P20783 139-257, looked up) YAEHKSHRGEYSVCDSESLWVTDKSSAIDIRGHQVTVLGEIKTGNSPVKQYFYETRCKEARPVKNGCRGIDDKHWNSQCKTSQTYVRALTSENNKLVGWRWIRIDTSCVCALSRKIGRT |
|  |  | 0.0121 | neurotrophin 5 (NT5) (ligand, UniProt P34130 81-210, looked up) GVSETAPASRRGELAVCDAVSGWVTDRRTAVDLRGREVEVLGEVPAAGGSPLRQYFFETRCKADNAEEGGPGAGGGGCRGVDRRHWVSECKAKQSYVRALTADAQGRVGWRWIRIDTACVCTLLSRTGRA |
